# Assay results: paper PMC10985318
# B1: V1ΔHC (S. cerevisiae V1-ATPase lacking subunits H and C) (Saccharomyces cerevisiae S288C) (protein)
# chain 1: AGAIENARKEIKRISLEDHAESEYGAIYSVSGPVVIAENMIGCAMYELVKVGHDNLVGEVIRIDGDKATIQVYEETAGLTVGDPVLRTGKPLSVELGPGLMETIYDGIQRPLKAIKEESQSIYIPRGIDTPALDRTIKWQFTPGKFQVGDHISGGDIYGSVFENSLISSHKILLPPRSRGTITWIAPAGEYTLDEKILEVEFDGKKSDFTLYHTWPVRVPRPVTEKLSADYPLLTGQRVLDALFPCVQGGTTCIPGAFGCGKTVISQSLSKYSNSDAIIYVG
# chain 2: CGERGNEMAEVLMEFPELYTEMSGTKEPIMKRTTLVANTSNMPVAAREASIYTGITLAEYFRDQGKNVSMIADSSSRWAEALREISGRLGEMPADQGFPAYLGAKLASFYERAGKAVALGSPDRTGSVSIVAAVSPAGGDFSDPVTTATLGITQVFWGLDKKLAQRKHFPSINTSVSYSKYTNVLNKFYDSNYPEFPVLRDRMKEILSNAEELEQVVQLVGKSALSDSDKITLDVATLIKEDFLQQNGYSTYDAFCPIWKTFDMMRAFISYHDEAQKAVANGANWSKLADSTGDVKHAVSSSKFFEPSRGEKEVHGEFEKLLSTMQERFAESTD
# chain 3: VLSDKELFAINKKAVEQGFNVKPRLNYNTVSGVNGPLVILEKVKFPRYNEIVNLTLPDGTVRQGQVLEIRGDRAIVQVFEGTSGIDVKKTTVEFTGESLRIPVSEDMLGRIFDGSGRPIDNGPKVFAEDYLDINGSPINPYARIYPEEMISTGVSAIDTMNSIARGQKIPIFSASGLPHNEIAAQICRQAGLVRPTKDVHDGHEENFSIVFAAMGVNLETARFFKQDFEENGSLERTSLFLNLANDPTIERIITPRLALTTAEYLAYQTERHVLTILTDMSSYADALREVSAAREEVPGRRGYPGYMYTDLSTIYERAGRVEGRNGSITQIPILTMPNDDITHPIPDLTGYITEGQIFVDRQLHNKGIYPPINVLPSLSRLMKSAIGEGMTRKDHGDVSNQLYAKYAIGKDAAAMKAVVGEEALSIEDKLSLEFLEKFEKTFITQGAYEDRTVFESLDQAWSLLRIYPKEMLNRISPKILDEFYDRARDDADEDEEDPDTRSSGKKKDASQEESLI
# Substrate: Nc1ncnc2c1ncn2[C@@H]1O[C@H](COP(=O)(O)OP(=O)(O)OP(=O)(O)O)[C@@H](O)[C@H]1O
# Assay: purified protein
# Conditions: MgATP, MgCl2 twice the ATP concentration, 25 mM Tris/HCl pH 8.0, 60 mM KCl, 25 °C, at saturating MgATP, non-Michaelis kinetics, local double-reciprocal fit of three consecutive concentrations
protein,measurement,value
B1,Km,41.7 µM
same,kcat,9.6 s⁻¹
